Here are results for 3 molecules from US20240270821A1, “GIP/GLP1/GCG TRI-RECEPTOR AGONISTS AND USES THEREOF” (priority 2023, published 2024).

What all share (test): cell-based or functional assay
Assay [1] deals with human GLP-1 receptor (hGLP-1R) (human) (UniProt P43220).
Another assay deals with hGLP-1R (Homo sapiens, UniProt P43220).
In assay [2] the target is human glucagon receptor (hGcgR) (human) (UniProt P47871).
Assay [3] addresses T1, human GIP receptor (hGIPR) (human) (UniProt P48546).
T1 sequence (looked up): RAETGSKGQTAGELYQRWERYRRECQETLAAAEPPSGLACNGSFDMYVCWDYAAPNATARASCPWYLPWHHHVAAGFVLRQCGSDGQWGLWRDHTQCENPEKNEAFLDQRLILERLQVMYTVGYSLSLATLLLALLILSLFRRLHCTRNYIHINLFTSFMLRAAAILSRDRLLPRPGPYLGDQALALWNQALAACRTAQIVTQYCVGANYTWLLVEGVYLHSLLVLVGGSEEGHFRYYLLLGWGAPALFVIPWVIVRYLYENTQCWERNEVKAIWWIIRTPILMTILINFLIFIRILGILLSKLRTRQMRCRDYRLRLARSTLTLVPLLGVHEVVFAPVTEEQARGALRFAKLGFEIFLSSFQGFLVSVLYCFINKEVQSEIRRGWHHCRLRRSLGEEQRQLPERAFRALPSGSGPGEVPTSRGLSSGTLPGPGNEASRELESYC

The target of assay [4] is human glucagon receptor (human) (UniProt P47871).
The target of assay [5] is T2, human GIP receptor (human) (UniProt P48546).
T2 sequence (looked up): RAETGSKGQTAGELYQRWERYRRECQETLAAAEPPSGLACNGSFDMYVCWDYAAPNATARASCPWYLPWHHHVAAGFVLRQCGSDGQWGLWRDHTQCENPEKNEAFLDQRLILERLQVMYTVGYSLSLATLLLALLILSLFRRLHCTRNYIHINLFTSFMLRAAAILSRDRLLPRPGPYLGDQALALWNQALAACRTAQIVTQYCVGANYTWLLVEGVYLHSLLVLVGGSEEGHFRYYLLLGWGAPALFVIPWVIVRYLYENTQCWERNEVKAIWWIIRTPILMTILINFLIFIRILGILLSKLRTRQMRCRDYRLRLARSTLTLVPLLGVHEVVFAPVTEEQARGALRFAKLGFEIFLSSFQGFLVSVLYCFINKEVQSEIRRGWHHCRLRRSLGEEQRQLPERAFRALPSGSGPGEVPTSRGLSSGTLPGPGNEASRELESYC

Assay [6] addresses human GLP-1R (SNAP-GLP-1R expressed in HEK293 cells) (human) (UniProt P43220).

human GLP-1 receptor (hGLP-1R) (human), sequence (P43220 24-463): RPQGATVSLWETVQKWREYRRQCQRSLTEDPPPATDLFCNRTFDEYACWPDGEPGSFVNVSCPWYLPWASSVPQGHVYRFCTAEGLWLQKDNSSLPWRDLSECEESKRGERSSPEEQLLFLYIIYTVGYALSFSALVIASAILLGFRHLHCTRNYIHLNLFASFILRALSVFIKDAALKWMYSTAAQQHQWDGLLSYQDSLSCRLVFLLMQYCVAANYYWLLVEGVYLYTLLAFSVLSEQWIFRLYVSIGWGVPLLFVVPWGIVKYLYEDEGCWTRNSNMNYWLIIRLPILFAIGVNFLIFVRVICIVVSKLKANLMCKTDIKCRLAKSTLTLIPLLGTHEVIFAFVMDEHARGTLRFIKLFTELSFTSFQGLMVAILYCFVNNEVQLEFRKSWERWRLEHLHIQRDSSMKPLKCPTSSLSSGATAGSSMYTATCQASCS
hGLP-1R, sequence (P43220 24-463): as above
human glucagon receptor (hGcgR) (human), sequence (P47871 26-477): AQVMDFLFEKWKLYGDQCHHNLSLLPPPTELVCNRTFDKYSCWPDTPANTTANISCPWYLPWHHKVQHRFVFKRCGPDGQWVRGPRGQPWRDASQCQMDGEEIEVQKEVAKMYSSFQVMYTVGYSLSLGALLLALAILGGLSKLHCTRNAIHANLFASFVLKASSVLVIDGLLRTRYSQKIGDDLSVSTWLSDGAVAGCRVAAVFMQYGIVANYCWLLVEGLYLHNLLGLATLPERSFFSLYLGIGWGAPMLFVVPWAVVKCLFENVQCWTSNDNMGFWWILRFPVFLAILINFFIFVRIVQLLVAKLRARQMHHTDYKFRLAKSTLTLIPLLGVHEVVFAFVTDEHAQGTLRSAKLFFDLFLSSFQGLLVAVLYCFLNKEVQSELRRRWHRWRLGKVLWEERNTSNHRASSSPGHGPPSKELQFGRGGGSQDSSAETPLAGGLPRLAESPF
human glucagon receptor (human), sequence (P47871 26-477): as above
human GLP-1R (SNAP-GLP-1R expressed in HEK293 cells) (human), sequence (P43220 24-463): as the sequence (P43220 24-463) above

B1: Example 579 (peptide)
chain: YXQGTXTSDXSILLDKKAQXAFIEWLQEGGPSSGEPPPSGTEE
modifications: non-natural residues; lysine acylated with C18 diacid; C-terminal amide; synthetic construct; SITE 2: note = 2-Aminoisobutyric Acid; SITE 6: note = alpha-methyl-2-fluoro-L-phenylalanine; SITE 10: note = 3-(4-Pyridyl)-L-alanine; SITE 17: note = Lysine is chemically modified through conjugation of the epsilon-amino group of the Lysine side chain with (gamma-Glu)2-CO-(CH2)1
In the case of B1, the results for the Relative cAMP EC50 in assay [1], in assay [2] and in assay [3] were 0.252 nM, 2.36 nM and 0.0171 nM, respectively. Moreover, the values for the cAMP Rel EC50, nM (presence of 1% HSA) (with hGLP-1R; in assay [4]; in assay [5]) were 67.3 nM, 679 nM and 3.79 nM, respectively.

B2: Example 548 (peptide)
chain: YXQGTXTSDXXILLDXKAQXXFIEYLIEGGPSSGEPPPSGTGE
modifications: synthetic construct; SITE 2: note = 2-Aminoisobutyric Acid; SITE 6: note = alpha-methyl-2-fluoro-L-phenylalanine; SITE 10: note = 3-(4-Pyridyl)-L-alanine; SITE 11: note = alpha-methyl-L-serine; SITE 16: note = L-ornithine; SITE 17: note = Lysine is chemically modified through conjugation of the epsi
As for B2, the values for the Relative cAMP EC50 in assay [1], in assay [2] and in assay [3] were 0.478 nM, 3.94 nM and 0.0547 nM, respectively. Also, the GLP1R Internalization EC50 in assay [6] worked out at 17.8 nM. This molecule also displayed an Internalization % TOP in assay [6] of 109%. For the same molecule, the results for the cAMP Rel EC50, nM (presence of 1% HSA) (in the assay with hGLP-1R; in assay [4]; in assay [5]) were 38 nM, 295 nM and 3.48 nM, respectively.

B3: Example 583 (peptide)
chain: YXQGTXTSDXSILLDXKAQXAFIEYLQEGGPSSGEPPPSGTEE
modifications: acylated lysine (γ-Glu)2 C18 diacid; non-natural residues; C-terminal amide; synthetic construct; SITE 2: note = 2-Aminoisobutyric Acid; SITE 6: note = alpha-methyl-2-fluoro-L-phenylalanine; SITE 10: note = 3-(4-Pyridyl)-L-alanine; SITE 16: note = L-ornithine; SITE 17: note = Lysine is chemically modified through conjugation of the epsilon-amino group of the Lysine side chai
Consider B3, for which the Relative cAMP EC50 in assay [1] was determined as 0.542 nM; in assay [2], 6.32 nM; in assay [3], 0.0692 nM. In addition, the cAMP Rel EC50, nM (presence of 1% HSA) is 71 nM with hGLP-1R, 1250 nM in assay [4] and 12.3 nM in assay [5].
